Earlier results on one substance are cited in paper PMC11750407.

The data set has as its target coagulation factor Xa (Homo sapiens) (UniProt P00742).
Chain of UniProt P00742 (P00742 41-179, chain 1 of 2): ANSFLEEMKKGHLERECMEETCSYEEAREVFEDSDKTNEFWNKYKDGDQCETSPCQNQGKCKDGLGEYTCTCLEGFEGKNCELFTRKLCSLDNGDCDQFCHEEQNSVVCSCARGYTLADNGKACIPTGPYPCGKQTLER
Chain of UniProt P00742 (P00742 235-488, chain 2 of 2): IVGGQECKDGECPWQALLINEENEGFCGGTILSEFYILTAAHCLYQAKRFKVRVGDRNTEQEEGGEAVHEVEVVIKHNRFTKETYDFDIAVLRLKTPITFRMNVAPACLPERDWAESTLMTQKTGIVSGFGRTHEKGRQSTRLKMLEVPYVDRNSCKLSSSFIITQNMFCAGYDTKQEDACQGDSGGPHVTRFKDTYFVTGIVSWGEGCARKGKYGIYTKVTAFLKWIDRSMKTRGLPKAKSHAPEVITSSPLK

For “coagulation factor Va (from UniProt P12259)”, the dissociation constant (Kd) was 1000 nM.

By Kd is commonly meant the free concentration of one partner at which half of the binding sites on the other are occupied at equilibrium, for simple one-to-one binding.
